Data taken from paper PMC9871958 (Protein & Cell, 2022).

Assays:
[1] = target: T1, SARS-CoV-2 RBD protein (SARS-CoV-2, UniProt P0DTC2); experiment: SPR; settings: both partners purified
[2] = target: T1, SARS-CoV-2 RBD protein; experiment: cell-based or functional assay

B1: 1F (antibody, V domains shown)
VH: EVQLVESGPGLVKPSETLSLTCTVSGGSISSSSYYWGWIRQPPGKGLEWIGSIYYRGSTYYNPSLKSRVTISVDTSKNQFSLKLSSVTAADTAVYYCARHVRSAYYYGSGSYRDEGNWFDPWGQGTLVTVSS
VL: QSVLTQPPSVSGAPGQRVTISCTGTRSNIGAGHDVHWYQQLPGTAPKLLIYGNNNRPSGVPDRFSGAKSGTSASLAITGLQAEDEADYYCQSYDRTLTSYVFGTGTKVTVL
For B1, the Kd [1] was 0.077 nM and the “IC50 of neutralisation of authentic SARS-CoV-2 virus (1F blocks RBD-ACE2)” value [2] was 0.018 µg/mL.
